Test results published in patent US20190161551A1 (Regeneron, published 2019).

How the values were obtained:
[1] = molecular target: T1, mouse TrkB.hFc (mouse); test: blocking ELISA: constant mouse TrkB.hFc (REGN2277) pre-mixed with antibody, binding to plate-coated BDNF
T1 construct: also called mTrkB.hFc; mTrkB-hFc
Protocol: (§1) Experiments were carried out using the following procedure. Human BDNF was coated at a concentration of 0.5 μg/mL (for blocking mouse TrkB.hFc interaction) or 0.3 μg/mL (for blocking rat TrkB.mmh interaction) in PBS on 96-well microtiter plate and incubated overnight at 4° C. […] In a 96-well dilution plate, 850 pM mouse TrkB.hFc or rat TrkB.mmh was mixed with the three-fold serially diluted anti-mouse TrkB antibodies and control antibody. The final antibody concentrations ranged from 1.69 pM to 100 nM. The protein-antibody mix was incubated at room temperature (RT) for 1 hour. The pre-bound mix was then transferred in duplicates to microtiter plates coated with BDNF. […] Plate-bound mouse TrkB.hFc was detected with HRP-conjugated goat anti-human Fcγ fragment specific antibody (Jackson Immunoresearch) and rat TrkB.mmh was detected with HRP-conjugated anti-histidine antibody (Qiagen). […]
(§2) The absorbance at 450 nm for each well was recorded and plotted as a function of the concentration of antibody. Data was analyzed in GraphPad Prism software using a four-parameter logistic equation over an 11-point dose response curve and IC₅₀ values were calculated. […] Percent blockade at maximum concentration of the antibody tested was calculated as an indicator of the ability of the antibodies to block the binding of TrkB to BDNF on the plate relative to the baseline of the assay. […]

[2] = molecular target: T2, rat TrkB extracellular domain expressed with a C-terminal myc-myc-hexahistidine tag (rat, UniProt Q63604 32-429); test: blocking ELISA: constant rat TrkB.mmh (REGN1808) pre-mixed with antibody, binding to plate-coated BDNF; half-maximal enhancement of the signal, not blockade
T2 construct: also called rTrkB.mmH; rTRKB.mmH
T2 sequence (Q63604 other isoform, or with tags, fused parts or gaps): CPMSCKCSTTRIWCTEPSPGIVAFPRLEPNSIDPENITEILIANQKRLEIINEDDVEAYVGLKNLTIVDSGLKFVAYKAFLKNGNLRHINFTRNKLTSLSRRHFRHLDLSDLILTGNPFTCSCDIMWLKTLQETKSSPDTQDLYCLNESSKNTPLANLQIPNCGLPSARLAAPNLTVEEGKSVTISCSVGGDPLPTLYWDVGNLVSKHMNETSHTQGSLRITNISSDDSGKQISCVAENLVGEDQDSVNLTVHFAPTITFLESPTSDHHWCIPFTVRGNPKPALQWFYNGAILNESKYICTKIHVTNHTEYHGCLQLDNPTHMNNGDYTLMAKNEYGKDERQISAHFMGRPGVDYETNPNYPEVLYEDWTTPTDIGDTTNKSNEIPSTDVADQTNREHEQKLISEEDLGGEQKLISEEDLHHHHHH
Protocol: as §1, §2

T1 sequence (chain, as listed by the source limits assumed): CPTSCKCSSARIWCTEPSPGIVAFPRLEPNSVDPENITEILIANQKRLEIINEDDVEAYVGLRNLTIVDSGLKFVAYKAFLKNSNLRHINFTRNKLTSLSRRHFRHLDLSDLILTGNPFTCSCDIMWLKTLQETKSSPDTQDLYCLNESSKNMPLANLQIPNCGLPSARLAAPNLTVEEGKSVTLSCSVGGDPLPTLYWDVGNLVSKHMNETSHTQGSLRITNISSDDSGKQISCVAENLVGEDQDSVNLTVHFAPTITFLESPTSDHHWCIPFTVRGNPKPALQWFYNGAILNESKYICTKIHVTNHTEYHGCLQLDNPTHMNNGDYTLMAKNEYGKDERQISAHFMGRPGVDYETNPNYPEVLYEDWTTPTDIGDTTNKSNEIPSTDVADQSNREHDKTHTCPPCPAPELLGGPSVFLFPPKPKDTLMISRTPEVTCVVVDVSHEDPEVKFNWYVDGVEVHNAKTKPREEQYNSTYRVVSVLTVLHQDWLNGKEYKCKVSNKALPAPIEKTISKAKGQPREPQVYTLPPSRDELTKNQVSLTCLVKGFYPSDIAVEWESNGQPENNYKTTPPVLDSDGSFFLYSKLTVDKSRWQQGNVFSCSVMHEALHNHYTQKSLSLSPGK

B1: M2aM14173N (antibody, mouse IgG2a, kappa, V domains shown)
VH: NVSLVESGGGSVKPGGSLQLSCAASGFTFSSSAMSWIRQTPEMRLEWVATISDRGSYTYYPDSVEGRFTISRDNAKNILYLQMSHLMSEDTAMYYCARGKGEKAYYTAFFAYWGQGSLVTVSA
VL: DIQMTQSPASLSASVGETVTITCRASENIYSYLAWYQQKPGKSPHLLVHNAETLAEGVPSRFSGSGSGPQFSLKINSLQPGDSGTYYCQHHYSSPWTFGGGTKLEIKR
notes: Anti-mouse TrkB antibody from hybridoma, mouse IgG2a Fc; also called surrogate anti-mouse TrkB antibody
IC50 (read off the curve) [1]: ~100 pM

B2: M2aM14179N (antibody, mouse IgG2a, kappa, V domains shown)
VH: EVQLQQSGPELVKPGASVKISCKASGYTLTDYYMNWVKQSHGKSLEWIGDINPNNGGTSYNQKFKGKATLTVDKSSSTAYMELRSLTSEDSAVYYCARGAYYSNYFDYWGQGTTLTVSS
VL: DIVMSQSPSSLAVSAGEKVTMSCKSSQSLLNSRTRKNYLAWYQQKPGQSPKLLIYWASTRESGVPDRFTGSGSGTDFTLTISSVQAEDLAVYYCKQSYILFTFGSGTQLEIKR
notes: as for B1
EC50 (read off the curve) [2]: ~400 pM
